Results on three molecules are retold here after US20200325237A1 (AVIDITY BIOSCIENCES, published 2020).

Broadly, the Kd is the concentration at which binding is half-saturated. A word on the EC50 (read off the curve): it is the concentration at which the effect is half-maximal. Read a low EC50 (read off the curve) as a more potent agent. For orientation: koff means a measure of how fast the partners let go of each other. A lower koff goes with a long-lived complex. For orientation: kon means a measure of how fast the partners come together.

Read-outs that look alike come from different tables or passages of the source.

The target of experiment [1] is T1, recombinant cyno transferrin receptor protein (Sino Biological 90253-C07H) (cyno, UniProt H9EXL1 89-760 (rhesus entry)).
T1 construct: Bought protein coated on ELISA plates; also called recombinant cyno TfR1; cynoTfR1
The experiment is described as follows: ELISA on plate-coated recombinant cyno TfR1 (CD71); fit: specific binding with Hill slope. Here is the method:
(§1) 100 μL of Superblock (ThermoFisher PI-37535) was added to each well and incubated for 1 hour at room temperature. The wash step was repeated before the addition of the samples. Samples were added at concentrations up to 10 nM, 50 μL/well. Plates were incubated for another hour at room temp and wash step repeated. Secondary antibody (Peroxidase AffiniPure Goat Anti-Human IgG, Fcγ Fragment Specific, Jackson Immunoresearch, 109-035-098) was diluted 1:5000 in Superblock and 50 μL/well added. Plates were incubated for 1 hour at room temperature and washed one more time. Binding was measured by the addition of 50 μL of 1-Step™ Ultra TMB-ELISA (ThermoFisher, 34028), incubated for 5 minutes, and the reaction was stopped with the addition of 25 μL of Stop Solution 2N sulfuric Acid (R&D Systems DY994). Absorbance was measured at 450 nm, with reference wavelength 570 nm subtracted. Binding constants were determined using GraphPad Prism Specific Binding with Hill Slope.
(§2) Half-well high-binding 96-well plates (Costar #3690) were coated with recombinant human transferrin receptor protein (Sino Biological 11020-H07H) or recombinant cyno transferrin receptor protein (Sino Biological 90253-C07H) at 1 ng/μL in PBS (Gibco 14190) and incubated overnight at 4° C. […] Absorbance was measured at 450 nm, with reference wavelength 570 nm subtracted. […]
For orientation: In an ELISA, binding on a coated surface is turned into a signal by an enzyme label.

The target in experiment [2] is T2, recombinant human transferrin receptor protein (Sino Biological 11020-H07H) (human, UniProt P02786 89-760).
T2 construct: Bought protein coated on ELISA plates; also called recombinant human TfR1; human TfR1
The experiment is described as follows: ELISA on plate-coated recombinant human TfR1; fit: specific binding with Hill slope. Here is the method:
as §1, §2

The target of experiment [3] is T1, recombinant cyno transferrin receptor …. Kind of experiment: ELISA on plate-coated recombinant cyno TfR1 (CD71); fit: specific binding with Hill slope. The method in brief: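 Plates coated overnight at 4° C with recombinant human or cyno TfR1 (1 ng/μL), blocked, then incubated with samples up to 10 nM for 1 h at room temperature. Bound IgG detected with HRP anti-human Fcγ and TMB (A450 minus A570); Bmax, h and Kd from specific-binding-with-Hill-slope fit.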
The source holds these as a separate data set.

Experiment [4] has as its target T3, hTfR (human transferrin receptor, source and construct not stated) (human, UniProt P02786 89-760, limits assumed). The experiment is described as follows: ELISA, biotinylated antibody on hTfR captured by plate-coated HFE (HFE+TfR).
The target in experiment [5] is T4, TfR2 (transferrin receptor 2) (UniProt Q9UP52 105-801, limits assumed).
T4 sequence (looked up): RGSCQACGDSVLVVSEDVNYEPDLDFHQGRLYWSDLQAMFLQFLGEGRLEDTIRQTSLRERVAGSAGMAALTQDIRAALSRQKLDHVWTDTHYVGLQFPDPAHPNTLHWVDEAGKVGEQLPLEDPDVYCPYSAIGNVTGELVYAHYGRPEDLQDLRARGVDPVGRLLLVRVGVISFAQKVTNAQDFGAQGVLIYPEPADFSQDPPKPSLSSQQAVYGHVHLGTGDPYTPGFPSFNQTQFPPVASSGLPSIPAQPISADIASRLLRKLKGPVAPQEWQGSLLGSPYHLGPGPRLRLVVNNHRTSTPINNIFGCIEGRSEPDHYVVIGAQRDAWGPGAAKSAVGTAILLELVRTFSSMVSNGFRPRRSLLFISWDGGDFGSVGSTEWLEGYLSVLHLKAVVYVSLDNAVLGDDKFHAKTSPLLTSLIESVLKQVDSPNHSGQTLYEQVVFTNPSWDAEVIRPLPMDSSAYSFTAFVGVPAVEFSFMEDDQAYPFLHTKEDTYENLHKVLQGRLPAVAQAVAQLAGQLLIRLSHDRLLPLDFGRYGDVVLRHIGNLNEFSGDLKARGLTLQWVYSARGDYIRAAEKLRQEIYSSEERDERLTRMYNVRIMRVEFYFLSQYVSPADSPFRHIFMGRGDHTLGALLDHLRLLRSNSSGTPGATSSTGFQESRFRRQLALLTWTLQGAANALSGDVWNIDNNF
The experiment is described as follows: A450 plate assay on TfR2 (method not described in the text).

The target in experiment [6] is T3, hTfR (human transferrin receptor, …). The experiment is described as follows: ELISA; ratio of the Kd on transferrin-captured hTfR to the Kd on directly coated hTfR. The method in brief:
(§3)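 Human holo-transferrin coated at 500 ng/mL (4 °C overnight) captured hTfR (200 ng/mL, 30 min); comparison plates carried directly coated hTfR. Biotinylated antibodies, 3-fold series from 20 nM (pre-addition), bound 1 h; streptavidin-HRP/TMB, A450 minus A570. Kd from specific binding with Hill slope; shift judged against reference antibody AF2474 with transferrin-overlapping epitope.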

Experiment [7] addresses T2, recombinant human transferrin receptor …. Kind of experiment: ELISA on plate-coated recombinant human TfR1 (CD71); fit: specific binding with Hill slope (row labels blank in the lower block; row taken by the order Bmax, h, Kd). Here is the method: as §1, with “Half-well high-binding 96-well plates (Costar #3690) were coated with recombinant human transferrin receptor protein (Sino Biological 11020-H07H) or recombinant cyno transferrin receptor protein (Sino Biological 90253-C07H) at 1 ng/μL in PBS (Gibco 14190) and incubated overnight at 4° C. Plates were washed four times with 100 μL of Tris buffered saline+Tween (20×TBST, Cell Signaling 9997S). 100” for “100”

Experiment [8] deals with T3, hTfR (human transferrin receptor, …). The experiment is described as follows: ELISA, biotinylated antibody on hTfR captured by plate-coated human holo-transferrin (Tf+TfR); fit: specific binding with Hill slope. An outline of the steps: as §3
The target is the same in experiment [9]. The experiment is described as follows: SPR (BioRad ProteOn XPR36), mAb captured on Protein A, hTfR as analyte, 25 C. An outline of the steps:
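Antibodies at 2 ug/ml were captured on a Protein A GLM chip for 40 s. hTfR was injected as analyte from 43 nM in a 3-fold series, 2 min association and 1 h dissociation. Run at 25 degrees C in HEPES/150 mM NaCl pH 7.4 with tween-20 and 0.2 mg/ml BSA.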

For experiment [10] the target is unchanged. The experiment is described as follows: ELISA; ratio of the Kd on HFE-captured hTfR to the Kd on directly coated hTfR.
Experiment [11] shares this target. Kind of experiment: ELISA, biotinylated antibody on hTfR captured by plate-coated HFE (HFE+TfR); fit: specific binding with Hill slope.

T2 sequence (P02786 89-760 limits assumed): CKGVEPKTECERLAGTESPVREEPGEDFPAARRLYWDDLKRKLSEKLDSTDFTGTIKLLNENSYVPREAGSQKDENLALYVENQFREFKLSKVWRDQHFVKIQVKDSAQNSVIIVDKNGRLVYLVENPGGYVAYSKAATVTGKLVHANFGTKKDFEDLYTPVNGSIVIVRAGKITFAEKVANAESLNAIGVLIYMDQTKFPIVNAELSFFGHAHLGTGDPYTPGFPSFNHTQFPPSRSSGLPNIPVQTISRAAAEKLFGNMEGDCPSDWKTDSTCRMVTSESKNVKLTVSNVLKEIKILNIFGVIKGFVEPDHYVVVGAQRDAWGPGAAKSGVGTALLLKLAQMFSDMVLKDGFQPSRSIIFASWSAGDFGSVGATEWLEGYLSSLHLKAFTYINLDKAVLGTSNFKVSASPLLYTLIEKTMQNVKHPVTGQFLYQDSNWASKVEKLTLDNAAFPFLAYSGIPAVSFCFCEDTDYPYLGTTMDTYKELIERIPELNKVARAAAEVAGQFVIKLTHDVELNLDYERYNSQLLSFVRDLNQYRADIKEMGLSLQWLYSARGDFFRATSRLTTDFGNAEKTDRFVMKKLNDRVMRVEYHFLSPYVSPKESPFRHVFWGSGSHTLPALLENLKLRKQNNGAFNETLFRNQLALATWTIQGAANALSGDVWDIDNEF
T3 sequence (P02786 89-760 limits assumed): as above
T1 sequence (chain, as listed by the source C07H C07H): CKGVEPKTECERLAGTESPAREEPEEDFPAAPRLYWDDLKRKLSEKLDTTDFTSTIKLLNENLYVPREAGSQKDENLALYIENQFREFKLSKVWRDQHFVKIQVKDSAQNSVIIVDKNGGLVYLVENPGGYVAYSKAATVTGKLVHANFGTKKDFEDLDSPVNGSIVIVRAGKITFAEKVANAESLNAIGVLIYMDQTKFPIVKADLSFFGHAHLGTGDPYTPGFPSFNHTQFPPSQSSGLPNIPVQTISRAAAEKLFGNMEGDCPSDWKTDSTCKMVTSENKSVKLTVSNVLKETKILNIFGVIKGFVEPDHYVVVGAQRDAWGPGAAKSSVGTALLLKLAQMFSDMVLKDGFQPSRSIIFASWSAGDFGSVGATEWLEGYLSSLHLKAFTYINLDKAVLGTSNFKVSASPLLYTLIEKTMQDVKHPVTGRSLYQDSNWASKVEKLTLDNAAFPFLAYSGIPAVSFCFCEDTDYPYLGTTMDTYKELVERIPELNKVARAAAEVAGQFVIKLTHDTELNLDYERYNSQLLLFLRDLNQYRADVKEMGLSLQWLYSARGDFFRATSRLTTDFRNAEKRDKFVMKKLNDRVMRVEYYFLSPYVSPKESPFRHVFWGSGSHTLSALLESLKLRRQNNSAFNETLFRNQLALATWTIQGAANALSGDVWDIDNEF

B1: hTfR1.IgG2 mAb-SSB siRNA conjugate (DAR1) (antibody, DAR 1, V domains shown)
VH: QVQLQQPGAELVKPGASVKLSCKASGYTFTNYWMHWVKQRPGQGLEWIGEINPINGRSNYGERFKTKATLTVDKSSSTAYMQLSSLTSEDSAVYYCARGTRAMHYWGQGTSVTVSS
VL: DIQMTQSPASLSVSVGETVTITCRTSENIYNNLAWYQQKQGKSPQLLVYAATNLADGVPSRFSGSGSGTQYSLKINSLQSEDFGNYYCQHFWGTPLTFGAGTKLELKR
modifications: SSB siRNA duplex joined through a bis-maleimide (BisMal) linker to TCEP-reduced cysteines, DAR1; chain and positions not stated; remaining free cysteines capped with N-ethylmaleimide
notes: also called TfR-SSB DAR 1; conjugated hTfRL.IgG2 mAb
B1: the dissociation constant Kd in [1] is 4.99 pM; in experiment [2], 3.18 pM.

B2: hTfR1.IgG2 mAb (chimeric human IgG2 anti-hTfR1 antibody) (antibody, V domains shown)
VH: B1 VH
VL: B1 VL
notes: The heavy variable region is printed there only as images; also called hTfRL.IgG2 mAb; TfR1-IgG2 mAb chimera
Regarding B2, the Kd is 4.87 pM in experiment [1] and 3.22 pM in experiment [2].

B3: 13E4-Variant 15iii (antibody, human IgG1, kappa, L234A L235A)
heavy: QVQLVQSGAEVKKPGASVKVSCKASGYTFTNYWMHWVRQAPGQGLEWMGEINPIQGRSNYAEKFQGRVTLTVDTSSSTAYMELSSLRSEDTATYYCARGTRAMHYWGQGTLVTVSSASTKGPSVFPLAPSSKSTSGGTAALGCLVKDYFPEPVTVSWNSGALTSGVHTFPAVLQSSGLYSLSSVVTVPSSSLGTQTYICNVNHKPSNTKVDKRVEPKSCDKTHTCPPCPAPEAAGGPSVFLFPPKPKDTLMISRTPEVTCVVVDVSHEDPEVKFNWYVDGVEVHNAKTKPREEQYNSTYRVVSVLTVLHQDWLNGKEYKCKVSNKARPAPIEKTISKAKGQPREPQVYTLPPSREEMTKNQVSLTCLVKGFYPSDIAVEWESNGQPENNYKTTPPVLDSDGSFFLYSKLTVDKSRWQQGNVFSCSVMHEALHNHYTQKSLSLSPG
light: DIQMTQSPSSLSASVGDRVTITCRTSENIYSNLAWYQQKPGKAPKLLIYAGTNLADGVPSRFSGSGSGTDYTLTISSLQPEDFANYYCQHFWGTPLTFGGGTKVEIKRTVAAPSVFIFPPSDEQLKSGTASVVCLLNNFYPREAKVQWKVDNALQSGNSQESVTEQDSKDSTYSLSSTLTLSKADYEKHKVYACEVTHQGLSSPVTKSFNRGEC
notes: Humanized hIgG1 with Fc mutations; also called hIgG1 TfR-Var15iii
On to B3, for which the Bmax in [3] was 96.4 % max binding; in experiment [7], 96.5 % max binding; in experiment [8], 3.5 A450; in experiment [11], 1.81 A450. Moreover, the Kd in experiment [3] stood at 10.3 pM; in experiment [7] it was 6.29 pM; in experiment [8], 60.4 pM; in [9], 9.99 pM; in [11] it was 214 pM. For the same molecule, the h in experiment [3] was 1.54; in experiment [7], 1.35; in [8], 1.52; in experiment [11] it was 1.45. The concentration giving a half-maximal response (EC50 (read off the curve)) in experiment [4] was around 200 pM. Besides, the binding result in experiment [5] is given as “no binding (tested: 1000 nM)”. In addition, the “Kd(Tf+TfR)/Kd(TfR)” value in experiment [6] was found to be 2.4. The same molecule gave a koff in [9] of 6.94e-06 s⁻¹. Moreover, the kon in experiment [9] came to 695000 M⁻¹ s⁻¹. Besides, the “Kd(HFE+TfR)/Kd(TfR)” value in [10] is 8.5.
